Laboratory results published in the MegaScale stability set (Tsuboyama et al. 2023).

B1: 2M8U (parent)
chain: TKAQVIEAFKVFDRDGNGYVTVDYLRKVLNELGDMMPADEIEEMIYEADPQNSGYVQYETFVGMLFL

Variants of: B1
Experiment: folding stability dG (cDNA display proteolysis); higher = more stable
Details: PBS, room temperature

| Variant | folding stability dG |
| --- | --- |
| TKAQVIEAFKVFDRDGNGYVTVDYLRKVLNQLGDMMPADEIEEMIYEADPQNSGYVQYETFVGMLFL [E31Q] | 3.53 kcal/mol |
| TKAQVIEAFKVFDRDGNGYVTVDYLRKVLNSLGDMMPADEIEEMIYEADPQNSGYVQYETFVGMLFL [E31S] | 3.64 kcal/mol |
| TKAQVIEAFKVFDRDGNGYVTVDYLRKVLNNLGDMMPADEIEEMIYEADPQNSGYVQYETFVGMLFL [E31N] | 3.36 kcal/mol |
| TKAQVIEAFKVFDRDGNGYVTVDYLRKVLNPLGDMMPADEIEEMIYEADPQNSGYVQYETFVGMLFL [E31P] | 2.78 kcal/mol |
| TKAQVIEAFKVFDRDGNGYVTVDYLRKVLNYLGDMMPADEIEEMIYEADPQNSGYVQYETFVGMLFL [E31Y] | 3.4 kcal/mol |
| TKAQVIEAFKVFDRDGNGYVTVDYLRKVLNRLGDMMPADEIEEMIYEADPQNSGYVQYETFVGMLFL [E31R] | 3.51 kcal/mol |
| TKAQVIEAFKVFDRDGNGYVTVDYLRKVLNTLGDMMPADEIEEMIYEADPQNSGYVQYETFVGMLFL [E31T] | 3.58 kcal/mol |
| TKAQVIEAFKVFDRDGNGYVTVDYLRKVLNVLGDMMPADEIEEMIYEADPQNSGYVQYETFVGMLFL [E31V] | 3.49 kcal/mol |
| TKAQVIEAFKVFDRDGNGYVTVDYLRKVLNWLGDMMPADEIEEMIYEADPQNSGYVQYETFVGMLFL [E31W] | 3.64 kcal/mol |
| TKAQVIEAFKVFDRDGNGYVTVDYLRKVLNLLGDMMPADEIEEMIYEADPQNSGYVQYETFVGMLFL [E31L] | 3.81 kcal/mol |
| TKAQVIEAFKVFDRDGNGYVTVDYLRKVLNMLGDMMPADEIEEMIYEADPQNSGYVQYETFVGMLFL [E31M] | 3.74 kcal/mol |
| TKAQVIEAFKVFDRDGNGYVTVDYLRKVLNELLDMMPADEIEEMIYEADPQNSGYVQYETFVGMLFL [G33L] | 3.89 kcal/mol |
| TKAQVIEAFKVFDRDGNGYVTVDYLRKVLNELADMMPADEIEEMIYEADPQNSGYVQYETFVGMLFL [G33A] | 3.79 kcal/mol |
| TKAQVIEAFKVFDRDGNGYVTVDYLRKVLNELKDMMPADEIEEMIYEADPQNSGYVQYETFVGMLFL [G33K] | 3.46 kcal/mol |
| TKAQVIEAFKVFDRDGNGYVTVDYLRKVLNELMDMMPADEIEEMIYEADPQNSGYVQYETFVGMLFL [G33M] | 4.14 kcal/mol |
| TKAQVIEAFKVFDRDGNGYVTVDYLRKVLNELHDMMPADEIEEMIYEADPQNSGYVQYETFVGMLFL [G33H] | 3.25 kcal/mol |
| TKAQVIEAFKVFDRDGNGYVTVDYLRKVLNELCDMMPADEIEEMIYEADPQNSGYVQYETFVGMLFL [G33C] | 3.87 kcal/mol |
| TKAQVIEAFKVFDRDGNGYVTVDYLRKVLNELEDMMPADEIEEMIYEADPQNSGYVQYETFVGMLFL [G33E] | 3.48 kcal/mol |
| TKAQVIEAFKVFDRDGNGYVTVDYLRKVLNELNDMMPADEIEEMIYEADPQNSGYVQYETFVGMLFL [G33N] | 3.18 kcal/mol |
| TKAQVIEAFKVFDRDGNGYVTVDYLRKVLNELIDMMPADEIEEMIYEADPQNSGYVQYETFVGMLFL [G33I] | 4.07 kcal/mol |
| TKAQVIEAFKVFDRDGNGYVTVDYLRKVLNELPDMMPADEIEEMIYEADPQNSGYVQYETFVGMLFL [G33P] | 3.54 kcal/mol |
| TKAQVIEAFKVFDRDGNGYVTVDYLRKVLNELQDMMPADEIEEMIYEADPQNSGYVQYETFVGMLFL [G33Q] | 3.37 kcal/mol |
| TKAQVIEAFKVFDRDGNGYVTVDYLRKVLNELVDMMPADEIEEMIYEADPQNSGYVQYETFVGMLFL [G33V] | 3.83 kcal/mol |
| TKAQVIEAFKVFDRDGNGYVTVDYLRKVLNELYDMMPADEIEEMIYEADPQNSGYVQYETFVGMLFL [G33Y] | 3.48 kcal/mol |
| TKAQVIEAFKVFDRDGNGYVTVDYLRKVLNELWDMMPADEIEEMIYEADPQNSGYVQYETFVGMLFL [G33W] | 3.55 kcal/mol |
| TKAQVIEAFKVFDRDGNGYVTVDYLRKVLNELDDMMPADEIEEMIYEADPQNSGYVQYETFVGMLFL [G33D] | 3.25 kcal/mol |
| TKAQVIEAFKVFDRDGNGYVTVDYLRKVLNELSDMMPADEIEEMIYEADPQNSGYVQYETFVGMLFL [G33S] | 3.28 kcal/mol |

| Variant | folding stability dG |
| --- | --- |
| TKAQVIEAFKVFDRDGNGYVTVDYLRKVLNELRDMMPADEIEEMIYEADPQNSGYVQYETFVGMLFL [G33R] | 3.51 kcal/mol |
| TKAQVIEAFKVFDRDGNGYVTVDYLRKVLNELFDMMPADEIEEMIYEADPQNSGYVQYETFVGMLFL [G33F] | 3.94 kcal/mol |
| TKAQVIEAFKVFDRDGNGYVTVDYLRKVLNELTDMMPADEIEEMIYEADPQNSGYVQYETFVGMLFL [G33T] | 3.81 kcal/mol |
| TKAQVIEAFKVFDRDGNGYVTVDYLRKVLNEDGDMMPADEIEEMIYEADPQNSGYVQYETFVGMLFL [L32D] | 1.84 kcal/mol |
| TKAQVIEAFKVFDRDGNGYVTVDYLRKVLNEEGDMMPADEIEEMIYEADPQNSGYVQYETFVGMLFL [L32E] | 2.04 kcal/mol |
| TKAQVIEAFKVFDRDGNGYVTVDYLRKVLNEQGDMMPADEIEEMIYEADPQNSGYVQYETFVGMLFL [L32Q] | 2.62 kcal/mol |
| TKAQVIEAFKVFDRDGNGYVTVDYLRKVLNEVGDMMPADEIEEMIYEADPQNSGYVQYETFVGMLFL [L32V] | 3.26 kcal/mol |
| TKAQVIEAFKVFDRDGNGYVTVDYLRKVLNEGGDMMPADEIEEMIYEADPQNSGYVQYETFVGMLFL [L32G] | 2.16 kcal/mol |
| TKAQVIEAFKVFDRDGNGYVTVDYLRKVLNECGDMMPADEIEEMIYEADPQNSGYVQYETFVGMLFL [L32C] | 2.76 kcal/mol |
| TKAQVIEAFKVFDRDGNGYVTVDYLRKVLNEWGDMMPADEIEEMIYEADPQNSGYVQYETFVGMLFL [L32W] | 3.33 kcal/mol |
| TKAQVIEAFKVFDRDGNGYVTVDYLRKVLNENGDMMPADEIEEMIYEADPQNSGYVQYETFVGMLFL [L32N] | 2.53 kcal/mol |
| TKAQVIEAFKVFDRDGNGYVTVDYLRKVLNEKGDMMPADEIEEMIYEADPQNSGYVQYETFVGMLFL [L32K] | 2.5 kcal/mol |
| TKAQVIEAFKVFDRDGNGYVTVDYLRKVLNERGDMMPADEIEEMIYEADPQNSGYVQYETFVGMLFL [L32R] | 2.6 kcal/mol |
| TKAQVIEAFKVFDRDGNGYVTVDYLRKVLNETGDMMPADEIEEMIYEADPQNSGYVQYETFVGMLFL [L32T] | 2.55 kcal/mol |
| TKAQVIEAFKVFDRDGNGYVTVDYLRKVLNEAGDMMPADEIEEMIYEADPQNSGYVQYETFVGMLFL [L32A] | 2.77 kcal/mol |
| TKAQVIEAFKVFDRDGNGYVTVDYLRKVLNEPGDMMPADEIEEMIYEADPQNSGYVQYETFVGMLFL [L32P] | 1.83 kcal/mol |
| TKAQVIEAFKVFDRDGNGYVTVDYLRKVLNEHGDMMPADEIEEMIYEADPQNSGYVQYETFVGMLFL [L32H] | 2.96 kcal/mol |
| TKAQVIEAFKVFDRDGNGYVTVDYLRKVLNEFGDMMPADEIEEMIYEADPQNSGYVQYETFVGMLFL [L32F] | 3.66 kcal/mol |
| TKAQVIEAFKVFDRDGNGYVTVDYLRKVLNESGDMMPADEIEEMIYEADPQNSGYVQYETFVGMLFL [L32S] | 2.56 kcal/mol |
| TKAQVIEAFKVFDRDGNGYVTVDYLRKVLNEMGDMMPADEIEEMIYEADPQNSGYVQYETFVGMLFL [L32M] | 3.21 kcal/mol |
| TKAQVIEAFKVFDRDGNGYVTVDYLRKVLNEIGDMMPADEIEEMIYEADPQNSGYVQYETFVGMLFL [L32I] | 3.52 kcal/mol |
| TKAQVIEAFKVFDRDGNGYVTVDYLRKVLNEYGDMMPADEIEEMIYEADPQNSGYVQYETFVGMLFL [L32Y] | 3.28 kcal/mol |
| TKAQVIEAFKVFDRDGNGYVTVDYLRKVLNELGDCMPADEIEEMIYEADPQNSGYVQYETFVGMLFL [M35C] | 3.25 kcal/mol |
| TKAQVIEAFKVFDRDGNGYVTVDYLRKVLNELGDHMPADEIEEMIYEADPQNSGYVQYETFVGMLFL [M35H] | 3.01 kcal/mol |
| TKAQVIEAFKVFDRDGNGYVTVDYLRKVLNELGDLMPADEIEEMIYEADPQNSGYVQYETFVGMLFL [M35L] | 3.68 kcal/mol |
| TKAQVIEAFKVFDRDGNGYVTVDYLRKVLNELGDFMPADEIEEMIYEADPQNSGYVQYETFVGMLFL [M35F] | 3.9 kcal/mol |
| TKAQVIEAFKVFDRDGNGYVTVDYLRKVLNELGDIMPADEIEEMIYEADPQNSGYVQYETFVGMLFL [M35I] | 3.69 kcal/mol |

| Variant | folding stability dG |
| --- | --- |
| TKAQVIEAFKVFDRDGNGYVTVDYLRKVLNELGDDMPADEIEEMIYEADPQNSGYVQYETFVGMLFL [M35D] | 2.96 kcal/mol |
| TKAQVIEAFKVFDRDGNGYVTVDYLRKVLNELGDEMPADEIEEMIYEADPQNSGYVQYETFVGMLFL [M35E] | 2.98 kcal/mol |
| TKAQVIEAFKVFDRDGNGYVTVDYLRKVLNELGDNMPADEIEEMIYEADPQNSGYVQYETFVGMLFL [M35N] | 2.96 kcal/mol |
| TKAQVIEAFKVFDRDGNGYVTVDYLRKVLNELGDAMPADEIEEMIYEADPQNSGYVQYETFVGMLFL [M35A] | 3.09 kcal/mol |
| TKAQVIEAFKVFDRDGNGYVTVDYLRKVLNELGDKMPADEIEEMIYEADPQNSGYVQYETFVGMLFL [M35K] | 3.16 kcal/mol |
| TKAQVIEAFKVFDRDGNGYVTVDYLRKVLNELGDPMPADEIEEMIYEADPQNSGYVQYETFVGMLFL [M35P] | 3.12 kcal/mol |
| TKAQVIEAFKVFDRDGNGYVTVDYLRKVLNELGDGMPADEIEEMIYEADPQNSGYVQYETFVGMLFL [M35G] | 2.95 kcal/mol |
| TKAQVIEAFKVFDRDGNGYVTVDYLRKVLNELGIMMPADEIEEMIYEADPQNSGYVQYETFVGMLFL [D34I] | 4.72 kcal/mol |
| TKAQVIEAFKVFDRDGNGYVTVDYLRKVLNELGKMMPADEIEEMIYEADPQNSGYVQYETFVGMLFL [D34K] | 3.43 kcal/mol |
| TKAQVIEAFKVFDRDGNGYVTVDYLRKVLNELGFMMPADEIEEMIYEADPQNSGYVQYETFVGMLFL [D34F] | 4.68 kcal/mol |
| TKAQVIEAFKVFDRDGNGYVTVDYLRKVLNELGHMMPADEIEEMIYEADPQNSGYVQYETFVGMLFL [D34H] | 3.53 kcal/mol |
| TKAQVIEAFKVFDRDGNGYVTVDYLRKVLNELGSMMPADEIEEMIYEADPQNSGYVQYETFVGMLFL [D34S] | 3.32 kcal/mol |
| TKAQVIEAFKVFDRDGNGYVTVDYLRKVLNELGAMMPADEIEEMIYEADPQNSGYVQYETFVGMLFL [D34A] | 3.54 kcal/mol |
| TKAQVIEAFKVFDRDGNGYVTVDYLRKVLNELGWMMPADEIEEMIYEADPQNSGYVQYETFVGMLFL [D34W] | 4.49 kcal/mol |
| TKAQVIEAFKVFDRDGNGYVTVDYLRKVLNELGCMMPADEIEEMIYEADPQNSGYVQYETFVGMLFL [D34C] | 4.32 kcal/mol |
| TKAQVIEAFKVFDRDGNGYVTVDYLRKVLNELGRMMPADEIEEMIYEADPQNSGYVQYETFVGMLFL [D34R] | 3.51 kcal/mol |
| TKAQVIEAFKVFDRDGNGYVTVDYLRKVLNELGGMMPADEIEEMIYEADPQNSGYVQYETFVGMLFL [D34G] | 3.42 kcal/mol |
| TKAQVIEAFKVFDRDGNGYVTVDYLRKVLNELGNMMPADEIEEMIYEADPQNSGYVQYETFVGMLFL [D34N] | 3.58 kcal/mol |
| TKAQVIEAFKVFDRDGNGYVTVDYLRKVLNELGQMMPADEIEEMIYEADPQNSGYVQYETFVGMLFL [D34Q] | 3.79 kcal/mol |
| TKAQVIEAFKVFDRDGNGYVTVDYLRKVLNELGYMMPADEIEEMIYEADPQNSGYVQYETFVGMLFL [D34Y] | 4.42 kcal/mol |
| TKAQVIEAFKVFDRDGNGYVTVDYLRKVLNELGMMMPADEIEEMIYEADPQNSGYVQYETFVGMLFL [D34M] | 4.24 kcal/mol |
| TKAQVIEAFKVFDRDGNGYVTVDYLRKVLNELGPMMPADEIEEMIYEADPQNSGYVQYETFVGMLFL [D34P] | 3.89 kcal/mol |
| TKAQVIEAFKVFDRDGNGYVTVDYLRKVLNELGLMMPADEIEEMIYEADPQNSGYVQYETFVGMLFL [D34L] | 4.44 kcal/mol |
| TKAQVIEAFKVFDRDGNGYVTVDYLRKVLNELGEMMPADEIEEMIYEADPQNSGYVQYETFVGMLFL [D34E] | 3.77 kcal/mol |
| TKAQVIEAFKVFDRDGNGYVTVDYLRKVLNELGTMMPADEIEEMIYEADPQNSGYVQYETFVGMLFL [D34T] | 3.51 kcal/mol |
| TKAQVIEAFKVFDRDGNGYVTVDYLRKVLNELGVMMPADEIEEMIYEADPQNSGYVQYETFVGMLFL [D34V] | 4.2 kcal/mol |
